Assays:
Test in all cases: ELISA-type assay, F3 module coated
[1] = biological target: Recombinant fibronectin module ^3F3 (Homo sapiens (Human), UniProt P02751 810-900)
[2] = biological target: T1, Recombinant fibronectin modules ^1-2F3 (Homo sapiens (Human), UniProt P02751 608-809)
T1 construct: Expressed with N-terminal His-tag

[3] = biological target: T2, Recombinant fibronectin module ^1F3 (Homo sapiens (Human), UniProt P02751 608-700)
T2 construct: Expressed with N-terminal His-tag, purified by Ni-NTA and ion-exchange chromatography; also called ^1F3 module

Measured: binding result

T1 sequence (P02751 608-809 limits assumed): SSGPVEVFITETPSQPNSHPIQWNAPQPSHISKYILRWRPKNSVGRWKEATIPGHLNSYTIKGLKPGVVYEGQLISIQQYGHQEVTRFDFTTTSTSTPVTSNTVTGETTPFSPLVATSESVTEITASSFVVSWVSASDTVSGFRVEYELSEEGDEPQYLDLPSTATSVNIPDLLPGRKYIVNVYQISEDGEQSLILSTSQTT
T2 sequence (P02751 608-700 limits assumed): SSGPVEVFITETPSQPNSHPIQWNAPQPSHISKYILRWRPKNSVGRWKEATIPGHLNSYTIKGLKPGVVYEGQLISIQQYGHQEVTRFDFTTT
Chain of Recombinant fibronectin module ^3F3 (P02751 other isoform, or with tags, fused parts or gaps limits assumed): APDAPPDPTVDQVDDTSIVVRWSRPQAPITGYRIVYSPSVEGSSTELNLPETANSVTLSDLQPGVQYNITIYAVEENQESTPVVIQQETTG

B1: FnbpA peptide D3 (S. aureus fibronectin-binding peptide) (peptide)
peptide: GFNKHTEIIEEDTNKDKPSYQFGGHNSVDFEEDTLPK
notes: domain: D3; also called peptide D3 from FnbpA; D3 fragment of S. aureus FnbpA
no binding: all assays above

Source: US20090170751A1 (published 2009)
